The source of these data is article PMC3978073, “Flexibility of the Linker between the Domains of DNA Methyltransferase SsoII Revealed by Small-Angle X-Ray Scattering: Implications for Transcription Regulation in SsoII Restriction–Modification Syste”.

The target in the data set is T1, M.SsoII (C5-DNA methyltransferase SsoII) (Shigella sonnei, UniProt P34879 1-379).
T1 sequence: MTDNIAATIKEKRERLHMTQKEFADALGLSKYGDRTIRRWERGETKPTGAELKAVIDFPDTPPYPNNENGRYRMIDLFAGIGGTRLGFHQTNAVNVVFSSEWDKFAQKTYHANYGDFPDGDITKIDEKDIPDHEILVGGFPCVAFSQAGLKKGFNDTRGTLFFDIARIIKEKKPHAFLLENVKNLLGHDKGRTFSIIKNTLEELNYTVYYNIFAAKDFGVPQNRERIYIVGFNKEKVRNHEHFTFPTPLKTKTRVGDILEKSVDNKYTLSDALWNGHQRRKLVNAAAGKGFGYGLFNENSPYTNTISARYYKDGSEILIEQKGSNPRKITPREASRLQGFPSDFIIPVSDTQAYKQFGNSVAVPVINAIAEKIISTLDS
Kind of data set: EMSA (native PAGE, EtBr and Coomassie stain); AdoHcy; M.SsoII:AdoHcy:DNA 1:2:1; Complex formation: 18 mM Tris-HCl, 136 mM NaCl, 3.5 mM beta-mercaptoethanol, 10% (w/v) glycerol, pH 8.0, with AdoHcy; temperature not stated; 7% native PAGE. The settings on record: protein: recombinant; (HisTrap purified; tag not described); blunt. For orientation: A gel shift assay detects complexes by their altered migration in electrophoresis.

B1: 15met (dsDNA)
DNA 1: AGAGCCAGGAACCGA
DNA 2: TCGGTTCCTGGCTCT
Take B1: the binding result was “binds”.
